# B1: Cellular tumor antigen p53 wild type, P67939 (protein)
# chain: MEESQAELNVEPPLSQETFSDLWNLLPENNLLSSELSAPVDDLLPYTDVATWLDECPNEAPQMPEPSAPAAPPPATPAPATSWPLSSFVPSQKTYPGNYGFRLGFLQSGTAKSVTCTYSPSLNKLFCQLAKTCPVQLWVDSPPPPGTRVRAMAIYKKLEHMTEVVRRCPHHERSSDYSDGLAPPQHLIRVEGNLRAEYLDDRNTFRHSVVVPYESPEIDSECTTIHYNFMCNSSCMGGMNRRPILTIITLEDSCGNLLGRNSFEVRVCACPGRDRRTEEENLRKKGQSCPEPPPRSTKRALPTNTSSSPQPKKKPLDGEYFTLQIRGFKRYEMFRELNDALELKDALDGREPGESRAHSSHLKSKKRPSPSCHKKPMLKREGPDSD
# Conditions: Bos taurus; pH 7.2; 10 °C; Urea; Fluorescence; Sodium phosphate 25 mM; KCl 150 mM; whole UniProt chain shown
protein,measurement,value
B1,denaturant midpoint (higher = more stable),5.21 M

# Source: FireProtDB (doi:10.1016/j.jmb.2009.08.013)
